# From paper PMC8263776, “Calmodulin-dependent KCNE4 dimerization controls membrane targeting” (Scientific Reports, 2021)
# How the values were obtained:
# [1] = target: the molecule itself; test: counting of GFP bleaching steps of single spots (TIRF microscopy); loopBAD-GFP proteins biotinylated by BirA on HEK-293 cells, immobilised through neutravidin on biotinylated glass; bleaching steps counted per spot
# [2] = target: the molecule itself; test: cross-linking; HEK-293 lysates (50 mM boric acid, 100 mM K acetate, 2 mM MgCl2, 1 mM EGTA, 1% Triton X-100, pH 8.5) with or without 5 mM DMP for 1 h; 7% SDS-PAGE, immunoblot against CFP
Protein,stoichiometry N [1],stoichiometry N [2]
"KCNE4-loopBAD-GFP (natural protein, mouse, UniProt Q9WTW3 1-170, looked up, biotin on the loopBAD tag (BirA co-expressed), KCNE4, mouse (mKCNE4), UniProtKB Q9WTW3; KCNE4-GFP with a loopBAD tag introduced at an NruI restriction site; source: HEK-293, electroporated with BirA, on the cell surface) MLRMEPLNSTYPSAAASSSPLESHVPSNSSGNGNEYFYILVVMSFYGVFLIGIMLGYMKSKRREKKSSLLLLYKDEERLWGEAMKPLPMMSGLRSGQVPMMLNMLQESVAPALSCTLCSMEGDSVSSESSSPDVHLPIQEEGADDELEETSETPLNDSSEGSSENIHQNS",2,
"Kv1.3-CFP (natural protein, rat, UniProt P15384 1-525, looked up, Kv1.3, rat (rKv1.3), subcloned from pRcCMV into pECFP-C1; pECFP-C1 is surmised to put CFP at the N-terminus of the insert; source: HEK-293, transfected; in lysate (cross-linking) or in fixed cells (FRET)) MTVVPGDHLLEPEAAGGGGGDPPQGGCVSGGGCDRYEPLPPALPAAGEQDCCGERVVINISGLRFETQLKTLCQFPETLLGDPKRRMRYFDPLRNEYFFDRNRPSFDAILYYYQSGGRIRRPVNVPIDIFSEEIRFYQLGEEAMEKFREDEGFLREEERPLPRRDFQRQVWLLFEYPESSGPARGIAIVSVLVILISIVIFCLETLPEFRDEKDYPASPSQDVFEAANNSTSGASSGASSFSDPFFVVETLCIIWFSFELLVRFFACPSKATFSRNIMNLIDIVAIIPYFITLGTELAERQGNGQQAMSLAILRVIRLVRVFRIFKLSRHSKGLQILGQTLKASMRELGLLIFFLFIGVILFSSAVYFAEADDPSSGFNSIPDAFWWAVVTMTTVGYGDMHPVTIGGKIVGSLCAIAGVLTIALPVPVIVSNFNYFYHRETEGEEQAQYMHVGSCQHLSSSAEELRKARSNSTLSKSEYMVIEEGGMNHSAFPQTPFKTGNSTATCTTNNNPNSCVNIKKIFTDV",,4
"Kv1.3-loopBAD-GFP (natural protein, rat, UniProt P15384 1-525, looked up, biotin on the loopBAD tag (BirA co-expressed), Kv1.3, rat (rKv1.3); GFP-Kv1.3 with a loopBAD tag introduced at an NruI restriction site; source: HEK-293, electroporated with BirA, on the cell surface) MTVVPGDHLLEPEAAGGGGGDPPQGGCVSGGGCDRYEPLPPALPAAGEQDCCGERVVINISGLRFETQLKTLCQFPETLLGDPKRRMRYFDPLRNEYFFDRNRPSFDAILYYYQSGGRIRRPVNVPIDIFSEEIRFYQLGEEAMEKFREDEGFLREEERPLPRRDFQRQVWLLFEYPESSGPARGIAIVSVLVILISIVIFCLETLPEFRDEKDYPASPSQDVFEAANNSTSGASSGASSFSDPFFVVETLCIIWFSFELLVRFFACPSKATFSRNIMNLIDIVAIIPYFITLGTELAERQGNGQQAMSLAILRVIRLVRVFRIFKLSRHSKGLQILGQTLKASMRELGLLIFFLFIGVILFSSAVYFAEADDPSSGFNSIPDAFWWAVVTMTTVGYGDMHPVTIGGKIVGSLCAIAGVLTIALPVPVIVSNFNYFYHRETEGEEQAQYMHVGSCQHLSSSAEELRKARSNSTLSKSEYMVIEEGGMNHSAFPQTPFKTGNSTATCTTNNNPNSCVNIKKIFTDV",4,
